Measurements: US20120039802A1 (published 2012)

B1: 547-C09 peptide-displaying phage (SEQ ID NO: 401) (peptide)
peptide: GDPDECQLNRETFEVWCPWHDP
B2: 545-F04 peptide-displaying phage (SEQ ID NO: 402) (peptide)
peptide: GDHRKCEISAKTHEVTCYDNDP
B3: 316-F08 peptide-displaying phage (SEQ ID NO: 397) (peptide)
peptide: GDYYQCQFSKDMYSERCWPYDP
B4: 453-A05 peptide-displaying phage (SEQ ID NO: 382) (peptide)
peptide: GSGDPCSPGPSINGHCSVMAP
B5: 524-E09 peptide-displaying phage (SEQ ID NO: 451) (peptide)
peptide: AQREVEEPYWYLDFLSSWRMHE
B6: 531-E11 peptide-displaying phage (SEQ ID NO: 404) (peptide)
peptide: GDASMCYDGLALRWDQCWPHDP
B7: 528-F05 peptide-displaying phage (SEQ ID NO: 450) (peptide)
peptide: AQIQGIQKTEQGEFYWFNWFPA
B8: 332-H09 peptide-displaying phage (SEQ ID NO: 398) (peptide)
peptide: GDNRFCSWVYNVDDWWCVDNDP
B9: 451-B12 peptide-displaying phage (SEQ ID NO: 384) (peptide)
peptide: GSFTACNKTSTTRQPCNPYAP
B10: 465-B07 peptide-displaying phage (SEQ ID NO: 385) (peptide)
peptide: GSELFCFYHHQGYEGCDVLAP
B11: 456-E04 peptide-displaying phage (SEQ ID NO: 013) (peptide)
peptide: AGNWICNLSEMRCYPKGT
B12: 546-G02 peptide-displaying phage (SEQ ID NO: 390) (peptide)
peptide: GDYDYCDFDLETYIPECHSYDP
B13: 551-D02 peptide-displaying phage (SEQ ID NO: 394) (peptide)
peptide: GDASWCDENSPAAWFYCELWDP
B14: 96-H12 peptide-displaying phage (SEQ ID NO: 452) (peptide)
peptide: AQRPEAHYKLAMSYPIIPRTKT

target: T1, cMet-Fc fusion protein (extracellular domain of the cMet receptor expressed as an Fc-fusion protein) (human, UniProt P08581 25-932); test: phage ELISA, cMet-Fc vs TRAIL-Fc
T1 construct: extracellular domain; also called soluble cMet-Fc-fusion protein; soluble cMet receptor; not shown: Fc part
In short: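 Specificity check: phage displaying peptides incubated 2 h at room temperature on wells coated with 0.5 μg/mL cMet-Fc versus TRAIL-Fc, after blocking with 3% BSA/PBST. HRP-anti-M13 antibody detected binding phage.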

T1 sequence (P08581 25-932): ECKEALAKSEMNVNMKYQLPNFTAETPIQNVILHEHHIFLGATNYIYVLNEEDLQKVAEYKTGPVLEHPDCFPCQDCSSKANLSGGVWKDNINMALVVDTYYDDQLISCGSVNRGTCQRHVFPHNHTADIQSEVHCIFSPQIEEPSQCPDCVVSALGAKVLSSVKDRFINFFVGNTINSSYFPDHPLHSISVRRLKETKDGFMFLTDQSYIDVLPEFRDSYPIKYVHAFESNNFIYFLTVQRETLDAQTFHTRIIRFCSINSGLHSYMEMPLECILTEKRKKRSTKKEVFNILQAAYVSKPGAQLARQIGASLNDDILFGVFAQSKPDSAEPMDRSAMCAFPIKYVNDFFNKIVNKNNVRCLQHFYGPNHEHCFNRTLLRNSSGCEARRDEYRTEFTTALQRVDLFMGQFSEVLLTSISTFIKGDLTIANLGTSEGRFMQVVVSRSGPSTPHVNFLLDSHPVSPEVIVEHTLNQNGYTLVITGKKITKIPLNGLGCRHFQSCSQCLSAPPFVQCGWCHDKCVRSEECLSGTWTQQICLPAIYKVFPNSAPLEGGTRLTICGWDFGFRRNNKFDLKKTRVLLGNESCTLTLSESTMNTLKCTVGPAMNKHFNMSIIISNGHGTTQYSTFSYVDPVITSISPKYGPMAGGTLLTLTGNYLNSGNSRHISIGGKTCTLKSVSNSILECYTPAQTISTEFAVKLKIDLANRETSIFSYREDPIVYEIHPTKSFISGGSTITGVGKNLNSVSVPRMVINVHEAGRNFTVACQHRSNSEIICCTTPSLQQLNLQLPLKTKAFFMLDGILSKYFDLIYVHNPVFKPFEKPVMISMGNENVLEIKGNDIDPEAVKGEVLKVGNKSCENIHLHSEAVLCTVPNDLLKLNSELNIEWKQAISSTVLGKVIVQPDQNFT

In order of rising “Protein ELISA (fold over background)” value:
1. B9  3.1 fold
2. B6  3.4 fold
3. B11  3.9 fold
4. B1  4.3 fold
5. B7  4.3 fold
6. B4  4.5 fold
7. B10  4.8 fold
8. B2  5.2 fold
9. B8  6.2 fold
10. B3  7 fold
11. B5  8.2 fold
12. B13  13.4 fold
13. B12  16.1 fold
14. B14  35.3 fold

target: T1, cMet-Fc fusion protein (extracellular …); test: phage ELISA on cMet-Fc, competitor HGF 500 ng/mL
In short: (§1)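 Plates coated with 0.5 μg/mL cMet-Fc, with TRAIL-Fc as background, then blocked with 3% BSA. Bound phage detected with HRP anti-M13 antibody.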

In order of rising “% of binding in the absence of HGF” value:
1. B12  19%
2. B9  27%
3. B4  28%
4. B1  32%
5. B6  33%
6. B3  38%
7. B8  43%
8. B14  64%
9. B13  70%
10. B10  79%
11. B7  81%
12. B11  81%
13. B5  93%
14. B2  114%

target: T2, human cMet expressed on 3T3 cells (human, UniProt P08581 25-1390); test: whole cell phage ELISA, 3T3 human cMet vs 3T3
T2 construct: whole, on cells; cells fixed with glutaraldehyde; also called cell surface-expressed human cMet; 3T3 cells that over-express human cMet
In short: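 Bound phage was detected with an HRP-conjugated anti-M13 antibody after PBST washes. The cells were cMet-over-expressing 3T3, read against plain 3T3.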

T2 sequence (P08581 25-1390): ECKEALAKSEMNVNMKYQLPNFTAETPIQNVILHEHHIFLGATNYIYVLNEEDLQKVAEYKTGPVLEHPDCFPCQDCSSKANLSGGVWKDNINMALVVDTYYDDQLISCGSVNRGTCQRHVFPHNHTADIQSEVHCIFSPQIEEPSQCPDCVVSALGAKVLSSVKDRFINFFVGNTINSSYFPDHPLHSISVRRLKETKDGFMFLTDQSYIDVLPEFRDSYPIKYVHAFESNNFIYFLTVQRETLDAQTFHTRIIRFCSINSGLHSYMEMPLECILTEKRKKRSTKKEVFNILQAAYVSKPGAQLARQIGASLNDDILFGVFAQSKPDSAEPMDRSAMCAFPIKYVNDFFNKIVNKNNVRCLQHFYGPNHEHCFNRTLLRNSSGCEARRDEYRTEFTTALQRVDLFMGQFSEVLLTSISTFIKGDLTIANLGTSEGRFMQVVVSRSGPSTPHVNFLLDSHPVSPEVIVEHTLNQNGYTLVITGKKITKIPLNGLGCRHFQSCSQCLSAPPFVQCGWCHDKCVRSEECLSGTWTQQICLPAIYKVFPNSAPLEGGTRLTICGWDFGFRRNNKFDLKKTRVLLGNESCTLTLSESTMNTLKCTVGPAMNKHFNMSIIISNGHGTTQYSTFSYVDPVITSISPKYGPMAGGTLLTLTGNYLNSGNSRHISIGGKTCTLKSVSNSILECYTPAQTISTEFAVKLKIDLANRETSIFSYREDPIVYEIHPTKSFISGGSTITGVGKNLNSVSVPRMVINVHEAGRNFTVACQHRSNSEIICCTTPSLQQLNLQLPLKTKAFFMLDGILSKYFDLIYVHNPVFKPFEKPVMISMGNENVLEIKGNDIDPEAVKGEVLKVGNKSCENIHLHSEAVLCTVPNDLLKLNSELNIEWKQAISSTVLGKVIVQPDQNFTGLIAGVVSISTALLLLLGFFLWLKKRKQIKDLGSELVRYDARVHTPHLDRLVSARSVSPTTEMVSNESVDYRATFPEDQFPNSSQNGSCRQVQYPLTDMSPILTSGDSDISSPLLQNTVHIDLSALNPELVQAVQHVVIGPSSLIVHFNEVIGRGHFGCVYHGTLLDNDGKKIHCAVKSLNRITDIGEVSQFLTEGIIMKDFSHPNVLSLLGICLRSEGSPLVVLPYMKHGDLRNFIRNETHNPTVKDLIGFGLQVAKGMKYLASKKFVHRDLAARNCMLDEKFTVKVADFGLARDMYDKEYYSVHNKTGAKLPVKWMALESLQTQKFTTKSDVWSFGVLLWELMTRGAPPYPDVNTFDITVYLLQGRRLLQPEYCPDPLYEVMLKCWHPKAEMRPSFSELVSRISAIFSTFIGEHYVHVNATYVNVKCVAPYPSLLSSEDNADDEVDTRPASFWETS

In order of falling “WC ELISA (fold over background)” value:
1. B11  1.4 fold
2. B9  1.37 fold
3. B13  1.37 fold
4. B14  1.37 fold
5. B4  1.33 fold
6. B5  1.33 fold
7. B3  1.3 fold
8. B6  1.3 fold
9. B8  1.3 fold
10. B10  1.27 fold
11. B12  1.27 fold
12. B1  1.23 fold
13. B2  1.17 fold
14. B7  1.1 fold

target: T1, cMet-Fc fusion protein (extracellular …); test: phage ELISA on cMet-Fc, competitor HGF 100 ng/mL
In short: as §1

In order of rising “% of binding in the absence of HGF” value:
1. B12  32%
2. B1  50%
3. B8  50%
4. B4  51%
5. B6  61%
6. B9  61%
7. B3  72%
8. B11  82%
9. B7  84%
10. B14  88%
11. B13  91%
12. B5  100%
13. B10  111%
14. B2  143%
